Assay results taken from US12072338B2, “Pharmaceutical peptides for the treatment of inflammatory diseases” (PROTAGONISTS LTD., priority 2007, dated 2024).

Columns and labels:
SDF1-β = molecular target: T1, SDF1-β (Homo sapiens, UniProt P48061); experiment: Micro-array analysis of chemokine binding peptides: SDF1-β
T1 construct: purchased 300-28b
Experimental: (§1) (1) Printing: Chemokine (CK) solution (in water) was serially diluted with Print Reagent (GenTel BioSurfaces USA) to final concentrations of 50 μg and 25 μg/ml. BSA/BSA-Biotin control solutions (in water) were diluted with Print Reagent to 100 μg/ml. Amplified stock of M13 phage control (M13KEgIII Cloning Vector, New England Biolabs, Cat.No.E8101S) was stored in Tris Buffered Saline (TBS; pH7.5, 4° C.) and diluted with Print Reagent to the working titre (10^8 pfu/μl). An automated spotting robot (16 pin print tool, 0.4 mm head; BioRobotics, UK) was used to print the CK/BSA control/M13 control, 5 repeats per sample (CK 25 μg/ml and 50 μg/ml; BSA 100 μg/ml; M13 20 μl), on PATH Protein Microarray Slides (GenTel, Prod.No. 2-1005/-1025) at […], and 50-70% relative humidity. Printed micro-array slides were stored at Room Temperature (RT) or 4° C. for at least 24 h before use.
(§2) (2) Blocking: Block Buffer (500 μl/partition; PATHblock, GenTel, Prod.No. 2-1014) was applied to the slide for 1 hour at room temp (RT). After removal of Block Buffer, the slide was air dried for 25 minutes;
(§3) (3) Phage Presented Peptide Binding: Amplified recombinant phage stock was stored in TBS and diluted with Wash Buffer to working titer (10^7 pfu/μl). Recombinant phage suspension (300 μl) was applied per partition and incubated at RT for 1 hour with gentle agitation.
(§4) (4) First Washing: The slides were washed twice with Wash Buffer 300 μl/partition).
(§5) (5) Primary Antibody (Ab) Labeling: The slides were incubated with the Primary Ab (1 mg/ml diluted ×2500 (Wash Reagent), 300 μl; Mouse Anti-M13 monoclonal Ab; Amersham Biosciences, UK; Product Code 27-9420-01) for 45 minutes at RT.
(§6) (6) Second Washing: The slides were washed twice with Wash Buffer (300 μl/partition).
(§7) (7) Secondary Ab Labeling: The slides were incubated with Secondary Ab (1.5 mg/ml diluted ×5000 (Wash Reagent), 300 μl; Cy3-conjugated AffiniPure Goat Anti-Mouse IgG; Jackson ImmunoReserch Labs, USA; Product Code 115-165-062).
(§8) (8) Third Washing: The slides were washed twice with Wash Buffer (300 μl/partition).
(§9) (9) Rinse: the slides were rinsed twice with Rinse Buffer (PATHrinse, GenTel, Prod.No. 2-1018) then dried well.
(§10) (10) Scanning: The peptide-bound, labeled slide was scanned (Laser Intensity 80%, Gain 80%, Resolution 10 μm) with a ScanArray Life Scanner (Packard BioChip Technologies, USA).
(§11) (11) Analysis: Quantitative analysis of micro-array was performed by the SpotReader program of Niles Scientific (USA) and presented as Relative Fluorescence (RF) as a function of CK concentration. Micro-array readout (Cy3 fluorescence) was quantified to determine the relative binding affinities of a CBP for the CKs and by inference, the specificity of the CBP for binding to a CK.

Eotaxin 3 = molecular target: T2, Eotaxin 3 (Homo sapiens, UniProt Q9Y258); experiment: Micro-array analysis of chemokine binding peptides: Eotaxin 3
T2 construct: purchased 300-48
T2 sequence (Q9Y258 24-94): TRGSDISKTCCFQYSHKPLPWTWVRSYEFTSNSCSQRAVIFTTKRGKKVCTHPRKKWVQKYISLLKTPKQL
Experimental: as §1, §2, §3, §4, §5, §6, §7, §8, §9, §10, §11

BCA-1 = molecular target: T3, BCA-1 (Homo sapiens, UniProt O43927); experiment: Micro-array analysis of chemokine binding peptides: BCA-1
T3 construct: purchased 300-47
T3 sequence (O43927 23-109): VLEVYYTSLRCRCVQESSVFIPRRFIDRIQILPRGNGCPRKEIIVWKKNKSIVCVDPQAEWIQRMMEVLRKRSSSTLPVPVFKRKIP
Experimental: as §1, §2, §3, §4, §5, §6, §7, §8, §9, §10, §11

Eotaxin = molecular target: T4, Eotaxin (Homo sapiens, UniProt P51671); experiment: Micro-array analysis of chemokine binding peptides: Eotaxin
T4 construct: purchased 300-21
Experimental: as §1, §2, §3, §4, §5, §6, §7, §8, §9, §10, §11

MCP-4 = molecular target: T5, MCP-4 (Homo sapiens, UniProt Q99616); experiment: Micro-array analysis of chemokine binding peptides: MCP-4; conditions: limit = start of the upper 75% of that peptide's response range
T5 construct: purchased 300-24
Experimental: as §1, §2, §3, §4, §5, §6, §7, §8, §9, §10, §11

Lymphotactin = molecular target: T6, Lymphotactin (Homo sapiens, UniProt P47992); experiment: Micro-array analysis of chemokine binding peptides: Lymphotactin
T6 construct: purchased 300-20
T6 sequence (P47992 22-114): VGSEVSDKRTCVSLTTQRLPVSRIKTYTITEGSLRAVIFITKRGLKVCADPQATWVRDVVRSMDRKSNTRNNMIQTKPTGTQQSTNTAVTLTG
Experimental: as §1, §2, §3, §4, §5, §6, §7, §8, §9, §10, §11

TECK = molecular target: T7, TECK (Homo sapiens, UniProt O15444); experiment: Micro-array analysis of chemokine binding peptides: TECK
T7 construct: purchased 300-45
T7 sequence (O15444 24-150): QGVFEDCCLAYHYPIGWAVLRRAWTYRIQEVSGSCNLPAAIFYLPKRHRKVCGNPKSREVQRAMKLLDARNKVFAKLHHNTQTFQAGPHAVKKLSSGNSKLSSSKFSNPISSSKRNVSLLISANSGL
Experimental: as §1, §2, §3, §4, §5, §6, §7, §8, §9, §10, §11

IP-10 = molecular target: T8, IP-10 (Homo sapiens, UniProt P02778); experiment: Micro-array analysis of chemokine binding peptides: IP-10
T8 construct: purchased 300-12
T8 sequence (P02778 22-98): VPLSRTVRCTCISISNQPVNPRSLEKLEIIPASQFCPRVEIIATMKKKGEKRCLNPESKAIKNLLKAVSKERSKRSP
Experimental: as §1, §2, §3, §4, §5, §6, §7, §8, §9, §10, §11

Mig = molecular target: T9, Mig (Homo sapiens, UniProt Q07325); experiment: Micro-array analysis of chemokine binding peptides: Mig
T9 construct: purchased 300-26
T9 sequence (Q07325 23-125): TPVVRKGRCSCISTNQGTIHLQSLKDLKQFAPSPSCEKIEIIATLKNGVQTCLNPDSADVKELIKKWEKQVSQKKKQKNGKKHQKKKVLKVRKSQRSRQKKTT
Experimental: as §1, §2, §3, §4, §5, §6, §7, §8, §9, §10, §11

I-TAC = molecular target: T10, I-TAC (Homo sapiens, UniProt O14625); experiment: Micro-array analysis of chemokine binding peptides: I-TAC
T10 construct: purchased 300-46
T10 sequence (O14625 22-94): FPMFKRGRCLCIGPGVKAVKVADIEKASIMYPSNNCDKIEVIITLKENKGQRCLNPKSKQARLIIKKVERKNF
Experimental: as §1, §2, §3, §4, §5, §6, §7, §8, §9, §10, §11

MCP-2 = molecular target: T11, MCP-2 (Homo sapiens, UniProt P80075); experiment: Micro-array analysis of chemokine binding peptides: MCP-2; conditions: limit = start of the upper 75% of that peptide's response range
T11 construct: purchased 300-15
T11 sequence (P80075 24-99): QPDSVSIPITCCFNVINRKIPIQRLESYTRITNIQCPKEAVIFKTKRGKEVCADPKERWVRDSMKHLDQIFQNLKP
Experimental: as §1, §2, §3, §4, §5, §6, §7, §8, §9, §10, §11

I-309 = molecular target: T12, I-309 (Homo sapiens, UniProt P22362); experiment: Micro-array analysis of chemokine binding peptides: I-309
T12 construct: purchased 300-37
T12 sequence (P22362 24-96): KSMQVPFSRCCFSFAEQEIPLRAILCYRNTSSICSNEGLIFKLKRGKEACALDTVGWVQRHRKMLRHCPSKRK
Experimental: as §1, §2, §3, §4, §5, §6, §7, §8, §9, §10, §11

[1] = tested on: Adjuvant-Induced Arthritis (AIA) rats; experiment: Adjuvant Induced Arthritis (AIA) rat model, Clinical Score; assay type: in vivo; conditions: 25 μg IP on days 7-18
Experimental: Peptides were tested in a rat model of AIA for their anti-inflammatory effects.
Disease Induction: AIA was induced in female Lewis rats aged 7-8 weeks by injection of heat-killed Mycobacerioum tuberculosis (Mt strain H37Ra, Difco Laboratories, USA) dispersed in incomplete Freund's adjuvant to a final concentration of 10 mg/ml (100 μl) at the base of the tail on day 0.
Measurement: Clinical Score (CS, 0-4) for each limb based on (a) joint inflammation, (b) redness, (c) deformity.
Efficacy Protocol 1 (5 rats per group). Peptide/control compound was injected intra-peritoneally (IP, 200 μl) on days 7-11 and 14-18.
Rats were sacrificed (CO2 inhalation) on day 43.
Efficacy Protocol 2 (8 rats per group). Group 1: peptide/PBS was injected intra-peritoneally (IP, 200 μl) on days 7-18; Group 2: PBS was injected IP on days 7-18; Group 3: Dexamethasone (Dexa) was injected IP on days 11 (Clinical Score (CS)1) and 13. Rats were sacrificed on day 43.
Combination Efficacy Protocol 1 (8 rats per group). Group 1: peptide injected IP on days 7-18; Group 2: PBS injected IP on days 7-18; Group 3: Dexa injected IP on day 11 (CS 1) and day 13; Group 4: Dexa injected IP on days 11 and 13 then peptide injected on days 14-22; Group 5: Dexa injected IP on days 11 and 13 then PBS injected on days 14-22.
Combination Efficacy Protocol 2 (8 rats per group). Group 1: peptide injected IP on days 7-18; Group 2: PBS injected IP on days 7-18; Group 3: Dexa injected IP on day 11 (CS 1) and day 13 then PBS on days 14-22; Group 4: PBS injected IP on days 7-10,12,14; Dexa injected on days 11, 13. Peptide injected on days 15-19.
Combination Efficacy Protocol 3 (8 rats per group). Group 1: peptide injected IP on days 7-18; Group 2: PBS injected IP on days 7-18; Group 3: Dexa injected IP on day 11 (CS 1) and day 13 then PBS on days 14-22; Group 4: peptide injected IP on days 7-10,12,14; Dexa injected on days 11, 13. Peptide injected on days 15-19.
Control Reagents for Adjuvant Induced Arthritis: Anti-Inflammatory Control: Dexamethasone Sodium Phosphate (Dexacort Forte, Teva) was dissolved in Phosphate Buffer Saline (PBS, GIBCO) to a final concentration of 1 mg/ml and injected in 200 μl (200 μg).
Negative Control: Phosphate Buffer Saline (PBS).

IL-8 = experiment: Micro-array analysis of chemokine binding peptides: IL-8; conditions: limit = start of the upper 75% of that peptide's response range
Experimental: as §1, §2, §3, §4, §5, §6, §7, §8, §9, §10, §11

Fractalkine = molecular target: T13, Fractalkine (Homo sapiens, UniProt P78423); experiment: Micro-array analysis of chemokine binding peptides: Fractalkine
T13 construct: purchased 300-31
T13 sequence (P78423 25-100 limits assumed): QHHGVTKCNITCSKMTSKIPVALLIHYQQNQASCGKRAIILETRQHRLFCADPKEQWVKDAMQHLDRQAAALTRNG
Experimental: as §1, §2, §3, §4, §5, §6, §7, §8, §9, §10, §11

[2] = limit = start of the upper 75% of that peptide's response range

T1 sequence (P48061 22-93): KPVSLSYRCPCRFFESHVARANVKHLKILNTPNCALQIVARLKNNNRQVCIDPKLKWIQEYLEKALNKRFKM
T5 sequence (Q99616 17-98): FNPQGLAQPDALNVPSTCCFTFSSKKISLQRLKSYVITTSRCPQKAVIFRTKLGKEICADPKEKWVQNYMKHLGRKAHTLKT
T4 sequence (P51671 24-97): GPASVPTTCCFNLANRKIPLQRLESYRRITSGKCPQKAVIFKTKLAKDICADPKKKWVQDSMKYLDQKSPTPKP
Sequence of IL-8 (P10145 28-99 limits assumed): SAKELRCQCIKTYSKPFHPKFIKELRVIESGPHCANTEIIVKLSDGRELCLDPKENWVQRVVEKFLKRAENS

Sequence	binding to SDF1-β, stated in words (SDF1-β)	binding to Eotaxin 3, stated in words (Eotaxin 3)	binding to BCA-1, stated in words (BCA-1)	binding to Eotaxin, stated in words (Eotaxin)	binding to MCP-4 with relatively high affinity (Relative Fluorescence Units) (MCP-4)	binding to Lymphotactin, stated in words (Lymphotactin)	binding to TECK, stated in words (TECK)	binding to IP-10, stated in words (IP-10)	binding to Mig, stated in words (Mig)	binding to I-TAC, stated in words (I-TAC)	binding to MCP-2 with relatively high affinity (Relative Fluorescence Units) (MCP-2)	binding to I-309, stated in words (I-309)	maximal anti-inflammatory effect [1] [%]	binding to IL-8 with relatively high affinity (Relative Fluorescence Units) (IL-8)	binding to Eotaxin 3 with relatively high affinity (Relative Fluorescence Units) (Eotaxin 3; [2])	binding to Fractalkine, stated in words (Fractalkine)	binding to Mig with relatively high affinity (Relative Fluorescence Units) (Mig; [2])	binding to I-TAC with relatively high affinity (Relative Fluorescence Units) (I-TAC; [2])	binding to I-309 with relatively high affinity (Relative Fluorescence Units) (I-309; [2])
WVFGNAACK [Ph-p8.7]	bound	bound	bound	bound	> 15,000 RFU	bound	bound	bound	bound	bound	> 15,000 RFU	bound	–	–	–	–	–	–	–
WVFGNMICK [P8 Rat]	–	–	–	–	–	–	–	–	–	–	–	–	40	–	–	–	–	–	–
WVFGVHFCK [Ph-p8.77]	bound	–	bound	–	> 15,000 RFU	–	bound	–	–	–	> 15,000 RFU	–	23	> 15,000 RFU	> 15,000 RFU	bound	> 15,000 RFU	> 15,000 RFU	> 15,000 RFU
